Results as given in article PMC4210868.

Biological target: DDAGNRQP-fused pVIII protein (phage fd (fd-tet)) (UniProt P69539)
Assay: tricine-SDS-PAGE

stoichiometry N: 2
Substance: DDAGNRQP-fused pVIII protein (from UniProt P69539 24-73)
